Patent publication US20130315910A1 (Xencor, published 2013)
Changes are numbered by the printed parent chain. In names and notes the source's numbering stands.

B1: anti-CD19 antibody HuAM4G7, WT (native) IgG1 (antibody)
heavy: not shown
light: DIVMTQSPATLSLSPGERATLSCRSSKSLQNVNGNTYLYWFQQKPGQSPQLLIYRMSNLNSGVPDRFSGSGSGTEFTLTISSLEPEDFAVYYCMQHLEYPITFGAGTKLEIKRTVAAPSVFIFPPSDEQLKSGTASVVCLLNNFYPREAKVQWKVDNALQSGNSQESVTEQDSKDSTYSLSSTLTLSKADYEKHKVYACEVTHQGLSSPVTKSFNRGEC
notes: also called WT IgG1; anti-CD19-IgG1; copies: 2 + 2
B2: anti-CD19 antibody HuAM4G7 IgG1 L235Y/S267E (antibody)
heavy: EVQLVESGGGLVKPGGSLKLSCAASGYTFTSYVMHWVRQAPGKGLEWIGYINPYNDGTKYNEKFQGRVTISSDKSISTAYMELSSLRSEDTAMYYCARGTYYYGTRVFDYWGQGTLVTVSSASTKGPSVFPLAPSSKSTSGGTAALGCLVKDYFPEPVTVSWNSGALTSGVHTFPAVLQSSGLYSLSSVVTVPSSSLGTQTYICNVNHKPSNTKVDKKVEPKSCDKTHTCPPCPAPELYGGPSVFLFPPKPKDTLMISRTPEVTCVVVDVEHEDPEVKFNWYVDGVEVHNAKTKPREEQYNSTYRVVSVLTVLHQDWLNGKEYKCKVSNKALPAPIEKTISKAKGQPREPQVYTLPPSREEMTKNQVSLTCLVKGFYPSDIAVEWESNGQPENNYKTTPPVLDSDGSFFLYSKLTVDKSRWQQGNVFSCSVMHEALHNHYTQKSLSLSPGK
light: B1 light
notes: Positions in EU numbering; copies: 2 + 2
B3: S239D/I332E (antibody, human IgG1, kappa)
heavy: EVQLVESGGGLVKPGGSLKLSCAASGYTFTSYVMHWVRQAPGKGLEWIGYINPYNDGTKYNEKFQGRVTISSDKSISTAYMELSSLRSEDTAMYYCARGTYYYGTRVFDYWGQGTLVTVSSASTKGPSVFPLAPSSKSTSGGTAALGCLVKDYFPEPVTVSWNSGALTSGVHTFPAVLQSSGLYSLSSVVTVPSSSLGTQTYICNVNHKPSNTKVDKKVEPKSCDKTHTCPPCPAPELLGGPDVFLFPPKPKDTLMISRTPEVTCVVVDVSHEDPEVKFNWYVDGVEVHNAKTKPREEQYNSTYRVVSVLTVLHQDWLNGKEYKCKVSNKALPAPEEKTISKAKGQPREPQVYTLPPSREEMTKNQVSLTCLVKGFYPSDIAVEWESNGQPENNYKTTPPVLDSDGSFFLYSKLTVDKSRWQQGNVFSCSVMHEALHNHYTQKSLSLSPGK
light: B1 light
notes: HuAM4G7 anti-CD19 IgG1 (m1) with these Fc substitutions, EU index; copies: 2 + 2
B4: anti-CD19 antibody HuAM4G7 IgG1 S267E/L328F (antibody)
heavy: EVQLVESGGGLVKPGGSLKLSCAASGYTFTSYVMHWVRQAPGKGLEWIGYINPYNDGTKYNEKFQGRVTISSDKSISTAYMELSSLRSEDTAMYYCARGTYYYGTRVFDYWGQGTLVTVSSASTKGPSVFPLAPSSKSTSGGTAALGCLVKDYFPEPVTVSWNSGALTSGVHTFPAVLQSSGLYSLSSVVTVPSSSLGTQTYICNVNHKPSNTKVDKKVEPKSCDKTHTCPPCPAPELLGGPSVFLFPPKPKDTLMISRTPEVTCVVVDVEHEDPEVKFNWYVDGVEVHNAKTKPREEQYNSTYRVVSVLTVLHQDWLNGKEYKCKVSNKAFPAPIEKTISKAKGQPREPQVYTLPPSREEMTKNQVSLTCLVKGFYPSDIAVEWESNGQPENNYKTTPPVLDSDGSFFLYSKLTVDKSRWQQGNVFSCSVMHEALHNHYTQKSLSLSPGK
light: B1 light
notes: Positions in EU numbering; also called anti-CD19-S267E/L328F; α-CD19-S267E/L328F; copies: 2 + 2

How the values were obtained:
[1] = biological target: T1, human FcγRIIb receptor protein (R&D Systems) (human, UniProt P31994 46-217); experiment: Biacore SPR, antibody captured on protein A/G chip, FcγR injected, 1:1 Langmuir fit
T1 construct: Bought protein injected over captured antibody in Biacore; also called CD32b
T1 sequence (looked up): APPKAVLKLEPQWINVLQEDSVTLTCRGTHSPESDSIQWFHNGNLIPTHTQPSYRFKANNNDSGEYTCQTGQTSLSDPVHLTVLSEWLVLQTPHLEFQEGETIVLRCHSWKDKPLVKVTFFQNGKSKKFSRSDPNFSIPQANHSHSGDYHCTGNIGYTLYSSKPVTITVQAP
Description: Variants were screened for receptor affinity using Biacore™ technology, also referred to as Biacore herein, a surface plasmon resonance (SPR) based technology for studying biomolecular interactions in real time. SPR measurements were performed using a Biacore 3000 instrument (Biacore, Piscataway, N.J.). A protein A/G (Pierce Biotechnology) CM5 biosensor chip (Biacore) was generated using a standard primary amine coupling protocol. All measurements were performed using HBS-EP buffer (10 mM HEPES pH 7.4, 0.15 M NaCl, 3 mM EDTA, 0.005% vol/vol surfactant P20, Biacore). Antibodies at 20 nM or 50 nM in HBS-EP buffer were immobilized on the protein A/G surface and FcγRs were injected. After each cycle, the surface was regenerated by injecting glycine buffer (10 mM, pH 1.5). Data were processed by zeroing time and response before the injection of FcγR and by subtracting appropriate nonspecific signals (response of reference channel and injection of running buffer). Kinetic analyses were performed by global fitting of binding data with a 1:1 Langmuir binding model using BIAevaluation software (Biacore).

[2] = biological target: T2, human FcγRIIa (131R), His- and GST-tagged (human, UniProt P12318 34-217); experiment: SPR
T2 construct: Expressed in HEK293T cells, purified by nickel chromatography; also called R131 FcγRIIa; not shown: 6xHis and GST tags of the pTT5 vector
T2 sequence (looked up): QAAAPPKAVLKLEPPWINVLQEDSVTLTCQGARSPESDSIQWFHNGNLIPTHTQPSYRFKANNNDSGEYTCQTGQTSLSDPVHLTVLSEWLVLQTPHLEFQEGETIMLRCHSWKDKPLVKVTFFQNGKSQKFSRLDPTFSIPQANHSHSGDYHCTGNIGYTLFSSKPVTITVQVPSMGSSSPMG

[3] = biological target: T3, human FcγRIIIa (158V), His- and GST-tagged (human, UniProt P08637 17-208); experiment: SPR
T3 construct: also called V158 FcγRIIIa; VIIIa; not shown: 6xHis and GST tags of the pTT5 vector

[4] = biological target: T1, human FcγRIIb receptor protein (R&D …); experiment: SPR
[5] = biological target: T4, human FcγRIIa (131H), His- and GST-tagged (human, UniProt P12318 34-217); experiment: SPR
T4 construct: also called H131 FcγRIIa; HIIa; not shown: 6xHis and GST tags of the pTT5 vector
T4 sequence (looked up): T2 sequence (looked up) with R134H

[6] = biological target: T5, human FcγRI receptor protein (R&D Systems) (human, UniProt P12314 16-288); experiment: SPR
T5 construct: also called soluble FcγRI; solFcγRI

[7] = biological target: T6, human FcγRIIIa (158F), His- and GST-tagged (human, UniProt P08637 17-208); experiment: SPR
T6 construct: also called F158 FcγRIIIa; not shown: 6xHis and GST tags of the pTT5 vector

[8] = biological target: T7, human FcγRIIb on cells (transfected HEK293T cells; primary human B cells) (human, UniProt P31994 43-310); experiment: flow cytometry on FcγRIIb-transfected 293T cells [bottom left panel]
T7 construct: whole, on cells; also called CD32b
T7 sequence (looked up): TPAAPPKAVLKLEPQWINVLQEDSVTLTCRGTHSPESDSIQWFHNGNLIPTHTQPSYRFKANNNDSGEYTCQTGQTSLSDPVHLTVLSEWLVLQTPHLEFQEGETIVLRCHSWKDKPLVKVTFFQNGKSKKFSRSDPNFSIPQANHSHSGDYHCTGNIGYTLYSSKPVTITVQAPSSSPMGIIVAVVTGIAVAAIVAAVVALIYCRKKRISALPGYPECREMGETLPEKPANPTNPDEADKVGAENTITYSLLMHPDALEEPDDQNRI
Description: (§1) In order to validate the Biacore data and evaluate receptor binding of the variants on the cell surface, binding of select antibodies to cells expressing FcγRIIb was measured. […] HEK293T cells in DMEM with 10% FBS were transfected with human FcγRIIb cDNA in pCMV6 expression vector (Origene Technologies, Rockville, Md.), cultured for 3 days, harvested, washed twice in PBS, resuspended in PBS with 0.1% BSA (PBS/BSA), and aliquoted at 2×10^5 cells per well into 96-well microtiter plates. Fc variant antibodies were serially diluted in PBS/BSA then added to the cells and incubated with mixing for 1 h at room temperature. After extensive washing with PBS/BSA, phycoerythrin (PE)-labeled anti-human-Fab-specific goat F(ab′)2 fragment was added for detection. Cells were incubated for 30 min at room temperature, washed, and resuspended in PBS/BSA. Binding was evaluated using a FACSCanto II flow cytometer (BD Biosciences, San Jose, Calif.), and the mean fluorescence intensity (MFI) was plotted as a function of antibody concentration using Graph Pad Prism software (GraphPad Software, San Diego, Calif.) from which half-maximal binding (EC50) values were determined by sigmoidal dose response modeling.

[9] = biological target: T7, human FcγRIIb on cells (transfected …); experiment: flow cytometry on FcγRIIb-transfected 293T cells [middle right panel]
Description: as §1

[10] = biological target: T7, human FcγRIIb on cells (transfected …); experiment: flow cytometry on FcγRIIb-transfected 293T cells [top left panel]
Description: as §1

[11] = biological target: T7, human FcγRIIb on cells (transfected …); experiment: flow cytometry on FcγRIIb-transfected 293T cells [top right panel]
Description: as §1

[12] = biological target: T7, human FcγRIIb on cells (transfected …); experiment: flow cytometry on FcγRIIb-transfected 293T cells [middle left panel]
Description: as §1

[13] = biological target: T8, mFcγRIV; experiment: SPR
T8 construct: also called mouse FcγRIV; not shown: C-terminal His and GST tags (named only on our card)
T8 chain: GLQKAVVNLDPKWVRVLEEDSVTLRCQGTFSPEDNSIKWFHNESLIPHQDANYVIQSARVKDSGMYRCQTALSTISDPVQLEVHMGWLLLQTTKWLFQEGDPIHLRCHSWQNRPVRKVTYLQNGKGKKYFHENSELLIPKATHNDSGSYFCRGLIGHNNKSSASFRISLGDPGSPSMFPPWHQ

[14] = biological target: T9, cynoFcγRIIb (Macaca fascicularis, UniProt A0A140HDP4); experiment: SPR
T9 construct: extracellular region, C-terminal His- and GST-tag; also called cynomolgus monkey FcγRIIb
T9 sequence (receptor extracellular region): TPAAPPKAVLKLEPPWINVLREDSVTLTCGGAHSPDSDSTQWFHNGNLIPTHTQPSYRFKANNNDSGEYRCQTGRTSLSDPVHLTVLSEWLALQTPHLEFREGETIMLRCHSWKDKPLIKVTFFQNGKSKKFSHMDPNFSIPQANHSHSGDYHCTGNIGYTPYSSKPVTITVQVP

[15] = biological target: T10, mFcγRIIb (Mus musculus, UniProt P08101); experiment: SPR
T10 construct: extracellular region, C-terminal His- and GST-tag; also called mouse FcγRII
T10 sequence (receptor extracellular region, looked up): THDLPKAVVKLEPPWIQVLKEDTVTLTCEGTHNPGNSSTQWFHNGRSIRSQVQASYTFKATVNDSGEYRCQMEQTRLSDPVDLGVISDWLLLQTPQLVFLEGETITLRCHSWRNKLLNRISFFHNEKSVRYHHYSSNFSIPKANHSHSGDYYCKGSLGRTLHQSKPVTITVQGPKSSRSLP

[16] = biological target: T11, cynoFcγRIIIa (Macaca fascicularis, UniProt Q8SPW2); experiment: SPR, Kd
T11 construct: extracellular region, C-terminal His- and GST-tag; also called cynomolgus monkey FcγRIIIa
Procedure, shortened: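 Biacore 3000 SPR in HBS-EP (pH 7.4): antibodies at 20 nM or 50 nM captured on protein A/G CM5 chip, cynomolgus FcγR extracellular domain injected, association and dissociation tracked. Reference- and buffer-subtracted data globally fitted to 1:1 Langmuir model for kinetics.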

[17] = biological target: T7, human FcγRIIb on cells (transfected …); experiment: flow cytometry on HEK293T cells transfected with human FcγRIIb, PE anti-human Fab detection
Description: as §1
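Throughout, for Fold vs WT IgG1 (off-rate): fold improvement over WT IgG1 so higher means slower dissociation than WT.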

T3 sequence (P08637 17-208 F176V): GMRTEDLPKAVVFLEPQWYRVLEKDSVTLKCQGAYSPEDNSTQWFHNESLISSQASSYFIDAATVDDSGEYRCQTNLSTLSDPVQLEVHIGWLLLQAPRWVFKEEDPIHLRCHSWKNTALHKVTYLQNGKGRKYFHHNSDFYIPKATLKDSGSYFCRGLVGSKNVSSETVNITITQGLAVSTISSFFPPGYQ
T5 sequence (P12314 16-288 limits assumed): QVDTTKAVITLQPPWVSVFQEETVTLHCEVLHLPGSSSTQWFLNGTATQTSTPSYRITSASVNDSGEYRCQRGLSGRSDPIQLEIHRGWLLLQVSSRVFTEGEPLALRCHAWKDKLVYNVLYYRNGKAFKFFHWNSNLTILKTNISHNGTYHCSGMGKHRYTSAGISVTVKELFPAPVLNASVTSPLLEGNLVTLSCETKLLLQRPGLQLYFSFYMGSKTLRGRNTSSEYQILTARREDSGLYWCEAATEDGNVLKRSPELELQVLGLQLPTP
T6 sequence (P08637 17-208): as the sequence (P08637 17-208 F176V) above, with V160F counted along it
T11 sequence (Q8SPW2 17-208): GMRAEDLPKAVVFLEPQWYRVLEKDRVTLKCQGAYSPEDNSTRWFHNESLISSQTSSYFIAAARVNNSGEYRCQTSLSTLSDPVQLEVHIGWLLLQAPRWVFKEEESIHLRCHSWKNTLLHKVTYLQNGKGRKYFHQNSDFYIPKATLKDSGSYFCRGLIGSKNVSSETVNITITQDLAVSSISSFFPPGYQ

Binder	Fold vs WT IgG1 [2] [fold]	Kd [2] [nM]	Fold vs WT IgG1 [3] [fold]	Kd [3] [nM]	Fold vs WT IgG1 [4] [fold]	Fold vs WT IgG1 [5] [fold]	Kd [5] [nM]	Fold vs WT IgG1 [6] [fold]	Kd [6] [nM]	Kd [4] [nM]	also measured
B1	1	859	1	191	1	1	646	1	0.329		Kd [1]: 1470 nM; Fold vs WT IgG1 [7]: 1 fold
B2	37.5	22.9			37.2	0.941	687	0.00347	95	39.4	EC50 (read off the curve) [8]: ~0.006 µg/mL; binding result [3]: no binding
B3		68.6					163		0.0374	101	EC50 (read off the curve) [9]: ~0.03 µg/mL; EC50 (read off the curve) [10]: ~0.02 µg/mL; Kd [7]: 28.2 nM; EC50 (read off the curve) [11]: ~0.02 µg/mL; EC50 (read off the curve) [12]: ~0.03 µg/mL
B4	275	3.12	0.038	5040	242	0.7	923	1.5	0.22	6.06	Fold vs WT IgG1 (Kd) [13]: 0.02 fold; Fold vs WT IgG1 (off-rate) [13]: 0.198 fold; Fold vs WT IgG1 (Kd) [14]: 0.881 fold; Fold vs WT IgG1 (off-rate) [14]: 1.26 fold; Fold vs WT IgG1 (Kd) [15]: 1.06 fold; Fold vs WT IgG1 (off-rate) [15]: 4.89 fold; binding result [16]: no binding; fold EC50 relative to WT IgG1 [17]: ~320 fold
